B1: GpH7-A5/GpH7-B3 variant K334_18N/GpL16-k0 (antibody, human IgG1, kappa)
heavy 1: not shown
heavy 2: not shown
light: DIVMTQSPLSLPVTPGEPASISCQASESLVHSNRNTYLHWYLQKPGQSPQLLIYKVSNRFSGVPDRFSGSGSGTDFTLKISRVEAEDVGVYYCSQNTHVPPTFGQGTKVEIERTVAAPSVFIFPPSDEQLKSGTASVVCLLNNFYPREAKVQWKVDNALQSGNSQESVTEQDSKDSTYSLSSTLTLSKADYEKHKVYACEVTHQGLSSPVTKSFNRGEC
notes: heterodimerized antibody, mutation in one H chain only; also called K334_18N He Ab
B2: GpH7-A5/GpH7-B3 variant K326_07I/GpL16-k0 (antibody, human IgG1, kappa)
heavy 1: not shown
heavy 2: not shown
light: DIVMTQSPLSLPVTPGEPASISCQASESLVHSNRNTYLHWYLQKPGQSPQLLIYKVSNRFSGVPDRFSGSGSGTDFTLKISRVEAEDVGVYYCSQNTHVPPTFGQGTKVEIERTVAAPSVFIFPPSDEQLKSGTASVVCLLNNFYPREAKVQWKVDNALQSGNSQESVTEQDSKDSTYSLSSTLTLSKADYEKHKVYACEVTHQGLSSPVTKSFNRGEC
notes: heterodimerized antibody, mutation in one H chain only; also called K326_07I He Ab
B3: GpH7-A5/GpH7-B3 variant K334_04F/GpL16-k0 (antibody, human IgG1, kappa)
heavy 1: not shown
heavy 2: not shown
light: DIVMTQSPLSLPVTPGEPASISCQASESLVHSNRNTYLHWYLQKPGQSPQLLIYKVSNRFSGVPDRFSGSGSGTDFTLKISRVEAEDVGVYYCSQNTHVPPTFGQGTKVEIERTVAAPSVFIFPPSDEQLKSGTASVVCLLNNFYPREAKVQWKVDNALQSGNSQESVTEQDSKDSTYSLSSTLTLSKADYEKHKVYACEVTHQGLSSPVTKSFNRGEC
notes: heterodimerized antibody, mutation in one H chain only; also called K334_04F He Ab
B4: GpH7-A5/GpH7-B3 variant K334_03V/GpL16-k0 (antibody, human IgG1, kappa)
heavy 1: not shown
heavy 2: not shown
light: DIVMTQSPLSLPVTPGEPASISCQASESLVHSNRNTYLHWYLQKPGQSPQLLIYKVSNRFSGVPDRFSGSGSGTDFTLKISRVEAEDVGVYYCSQNTHVPPTFGQGTKVEIERTVAAPSVFIFPPSDEQLKSGTASVVCLLNNFYPREAKVQWKVDNALQSGNSQESVTEQDSKDSTYSLSSTLTLSKADYEKHKVYACEVTHQGLSSPVTKSFNRGEC
notes: heterodimerized antibody, mutation in one H chain only; also called K334_03V He Ab
B5: GpH7-A5/GpH7-B3 variant K334_07I/GpL16-k0 (antibody, human IgG1, kappa)
heavy 1: not shown
heavy 2: not shown
light: DIVMTQSPLSLPVTPGEPASISCQASESLVHSNRNTYLHWYLQKPGQSPQLLIYKVSNRFSGVPDRFSGSGSGTDFTLKISRVEAEDVGVYYCSQNTHVPPTFGQGTKVEIERTVAAPSVFIFPPSDEQLKSGTASVVCLLNNFYPREAKVQWKVDNALQSGNSQESVTEQDSKDSTYSLSSTLTLSKADYEKHKVYACEVTHQGLSSPVTKSFNRGEC
notes: heterodimerized antibody, mutation in one H chain only; also called K334_07I He Ab
B6: GpH7-A5/GpH7-B3 variant K326_04F/GpL16-k0 (antibody, human IgG1, kappa)
heavy 1: not shown
heavy 2: not shown
light: DIVMTQSPLSLPVTPGEPASISCQASESLVHSNRNTYLHWYLQKPGQSPQLLIYKVSNRFSGVPDRFSGSGSGTDFTLKISRVEAEDVGVYYCSQNTHVPPTFGQGTKVEIERTVAAPSVFIFPPSDEQLKSGTASVVCLLNNFYPREAKVQWKVDNALQSGNSQESVTEQDSKDSTYSLSSTLTLSKADYEKHKVYACEVTHQGLSSPVTKSFNRGEC
notes: heterodimerized antibody, mutation in one H chain only; also called K326_04F He Ab
B7: GpH7-A5/GpH7-B3 variant K334_16H/GpL16-k0 (antibody, human IgG1, kappa)
heavy 1: not shown
heavy 2: not shown
light: DIVMTQSPLSLPVTPGEPASISCQASESLVHSNRNTYLHWYLQKPGQSPQLLIYKVSNRFSGVPDRFSGSGSGTDFTLKISRVEAEDVGVYYCSQNTHVPPTFGQGTKVEIERTVAAPSVFIFPPSDEQLKSGTASVVCLLNNFYPREAKVQWKVDNALQSGNSQESVTEQDSKDSTYSLSSTLTLSKADYEKHKVYACEVTHQGLSSPVTKSFNRGEC
notes: heterodimerized antibody, mutation in one H chain only; also called K334_16H He Ab
B8: GpH7-A5/GpH7-B3 variant K334_14T/GpL16-k0 (antibody, human IgG1, kappa)
heavy 1: not shown
heavy 2: not shown
light: DIVMTQSPLSLPVTPGEPASISCQASESLVHSNRNTYLHWYLQKPGQSPQLLIYKVSNRFSGVPDRFSGSGSGTDFTLKISRVEAEDVGVYYCSQNTHVPPTFGQGTKVEIERTVAAPSVFIFPPSDEQLKSGTASVVCLLNNFYPREAKVQWKVDNALQSGNSQESVTEQDSKDSTYSLSSTLTLSKADYEKHKVYACEVTHQGLSSPVTKSFNRGEC
notes: heterodimerized antibody, mutation in one H chain only; also called K334_14T He Ab
B9: GpH7-A5/GpH7-B3 variant K334_02A/GpL16-k0 (antibody, human IgG1, kappa)
heavy 1: not shown
heavy 2: not shown
light: DIVMTQSPLSLPVTPGEPASISCQASESLVHSNRNTYLHWYLQKPGQSPQLLIYKVSNRFSGVPDRFSGSGSGTDFTLKISRVEAEDVGVYYCSQNTHVPPTFGQGTKVEIERTVAAPSVFIFPPSDEQLKSGTASVVCLLNNFYPREAKVQWKVDNALQSGNSQESVTEQDSKDSTYSLSSTLTLSKADYEKHKVYACEVTHQGLSSPVTKSFNRGEC
notes: heterodimerized antibody, mutation in one H chain only; also called K334_02A He Ab
B10: GpH7-A5/GpH7-B3 variant K334_09D/GpL16-k0 (antibody, human IgG1, kappa)
heavy 1: not shown
heavy 2: not shown
light: DIVMTQSPLSLPVTPGEPASISCQASESLVHSNRNTYLHWYLQKPGQSPQLLIYKVSNRFSGVPDRFSGSGSGTDFTLKISRVEAEDVGVYYCSQNTHVPPTFGQGTKVEIERTVAAPSVFIFPPSDEQLKSGTASVVCLLNNFYPREAKVQWKVDNALQSGNSQESVTEQDSKDSTYSLSSTLTLSKADYEKHKVYACEVTHQGLSSPVTKSFNRGEC
notes: heterodimerized antibody, mutation in one H chain only; also called K334_09D He Ab
B11: GpH7-A5/GpH7-B3 variant K334_08L/GpL16-k0 (antibody, human IgG1, kappa)
heavy 1: not shown
heavy 2: not shown
light: DIVMTQSPLSLPVTPGEPASISCQASESLVHSNRNTYLHWYLQKPGQSPQLLIYKVSNRFSGVPDRFSGSGSGTDFTLKISRVEAEDVGVYYCSQNTHVPPTFGQGTKVEIERTVAAPSVFIFPPSDEQLKSGTASVVCLLNNFYPREAKVQWKVDNALQSGNSQESVTEQDSKDSTYSLSSTLTLSKADYEKHKVYACEVTHQGLSSPVTKSFNRGEC
notes: heterodimerized antibody, mutation in one H chain only; also called K334_08L He Ab

For this assay, the target named is T1, FcγRIa extracellular domain with C-terminal His tag (human, UniProt P12314 16-292).
T1 construct: extracellular domain; soluble analyte in Biacore; also called FcgRI; CD64
T1 sequence (P12314 16-292): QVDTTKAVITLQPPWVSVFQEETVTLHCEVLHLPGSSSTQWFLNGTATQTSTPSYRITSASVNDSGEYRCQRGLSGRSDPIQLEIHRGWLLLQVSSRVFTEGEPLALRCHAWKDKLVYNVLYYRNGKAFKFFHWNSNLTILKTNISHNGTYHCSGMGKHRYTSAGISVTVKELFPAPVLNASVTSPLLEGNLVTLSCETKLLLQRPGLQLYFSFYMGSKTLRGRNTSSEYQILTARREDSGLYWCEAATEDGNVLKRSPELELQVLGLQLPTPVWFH
The assay can be described thus: SPR (Biacore), relative FcγRIa binding, GpH7-A5/GpH7-B3/GpL16-k0 (HeCon Ab) = 100. A general note: SPR reads the build-up and loss of mass on a sensor chip optically.
Turning to B1, the He/Con_1a was 105 % of control. The figure for B2 is 101 % of control; for B3 it is 105 % of control. Take B4: the He/Con_1a is 105 % of control. As to B5, the He/Con_1a was 104 % of control.

On to B6, for which the He/Con_1a was 102 % of control. As for B7, the He/Con_1a is 105 % of control. The figure for B8 is 105 % of control; for B9 it is 106 % of control. In the case of B10, the He/Con_1a was 106 % of control. As for B11, the He/Con_1a is 105 % of control.

The values above are taken from patent US20180155451A1 (published 2018).
